{"source": "IntAct's records for PubMed 19716822", "target": "srk2e_arath SRK2E (UniProt Q940H6)", "sequence (Q940H6 whole entry)": "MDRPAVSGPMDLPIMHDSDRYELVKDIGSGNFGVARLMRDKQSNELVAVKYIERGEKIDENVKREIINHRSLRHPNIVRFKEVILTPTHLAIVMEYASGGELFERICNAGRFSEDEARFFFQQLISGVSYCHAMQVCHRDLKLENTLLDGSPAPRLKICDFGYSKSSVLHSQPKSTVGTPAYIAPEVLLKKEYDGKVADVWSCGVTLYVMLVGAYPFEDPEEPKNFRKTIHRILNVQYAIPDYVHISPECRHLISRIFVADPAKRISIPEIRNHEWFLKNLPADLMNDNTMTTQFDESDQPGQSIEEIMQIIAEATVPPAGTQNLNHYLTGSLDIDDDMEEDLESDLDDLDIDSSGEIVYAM", "data": [{"substance": "Respiratory burst oxidase homolog protein F (Arabidopsis thaliana (Mouse-ear cress)), O48538 S174A", "values": [{"measurement": "effect of a mutation on the interaction", "value": "decreasing interaction"}]}]}
